The record followed here is the nanobody polyreactivity screen of Harvey et al. (2022).

This series is described as follows: yeast display, Sf9 membrane polyspecificity reagent, FACS + sequencing; frameworks hold sequencing errors. Put shortly: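 In a synthetic yeast display library (Saccharomyces cerevisiae BJ5465), nanobody expression was induced with galactose for 36–48 hours. FACS gates were set low and high (top ~1%) using anti-HA fluorescence for expression and streptavidin fluorescence for binding of the Sf9 membrane reagent. Each polyreactivity label is drawn from the gate of origin.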
For “QVQLVDSGGGLDQAGGSLRLICDASGSIFWWNAMGWYRQAPGKETELVAAINWSTGRTYYADSVKGRFTISRDNAKNTVYLQMNSLKPEDTAVYYCGADVWTPYLISLKSGYDYWGQGTQLTVSS”, the “polyreactivity (PSR sort gate)” value is given as “low polyreactivity”.

In the case of “QVQLVDSGGGLDQAGGSLRLSCAASGFTFGDNAMGCYRQAPGKERELVARITGDGSTYYADSVKGRFTISRDNAKNTVYLQMNSLKPEDTAFFYCAADYSPRYTQIEYGYWGQGTQVTVSS”, the “polyreactivity (PSR sort gate)” value is “low polyreactivity”.

For “QVQLVDSGGGLDQAGGSLRLSCAASGLTFAYNTMGWYRQAPGKERELVADISRSAGSTYYADSVKVRFTISRDNAKNTVFLQMNSLKPDDTAVYYCNAAPYYVLYLLWSSNTYDYWGQGTQVTVSS”, the “polyreactivity (PSR sort gate)” value is on record as “high polyreactivity”.

With “QVQLVDSGGGLDQAGGSLRLSCAASGRIFGLYAMVWYRTAPGKEKELVAHIDVSDGSTYYADSVKGRFTISLDTAKNTVYLQMNRLKPEDTAVYYCNAEDSSRWYDWYLHDYWGQGTQVTVSS”, the “polyreactivity (PSR sort gate)” value was “high polyreactivity”.

Turning to “QVQLVDSGGGLGQAGGSLRLSCAASGSIFTTNAMGCYRHAPGKERELVAASSSRGGSTYYADSVKGRFTISRDNAKNTVYLQMNSLKPEDTAVYYCAARYRWPIPGTNYEYWGQGTQVTVSS”, the “polyreactivity (PSR sort gate)” value is “low polyreactivity”.

Regarding “QVQLVDSGGGLVHAGGSLRLSCAASGSTLIGNAMGWYRQAPWKERELVARISLRGGRTYYADSVKGRFTISRDNAKHTVYLQMNSLKPEDTAVYYCNRGGFSRYYYWGQGTQVTVSS”, the “polyreactivity (PSR sort gate)” value is on record as “low polyreactivity”.

On to “QVQLVDSGGGLVQAEGSLRLSCAPSGIIFGGYAMGWYIPAPGKERELVAAISRSGGSTYYADSVKGRFTISRDNAKNTVYLQMNSLKPEDTAVYYCAADGGAYEYDYWGQGTQVTVSS”, for which the “polyreactivity (PSR sort gate)” value was “high polyreactivity”.

“QVQLVDSGGGLVQAGASLPLSCAASGATFYIYARGWNIQAPGKERELVAANTWSGGRTFYADSVKGRFTMSRDNAKNTDYLQMNSLKPEDTAVYYCANRVRTGSVGNFNYWGQGTQVNVSS”: the “polyreactivity (PSR sort gate)” value is “high polyreactivity”.

As to “QVQLVDSGGGLVQAGGSLGLSCAASGSIVKYYAMGWYRQAPGKEREVVAAISSIGGRPYYADSVKGRFTISRDNAKNTVYLQRNSLKPEDTSVFYCARRFRRTGESEYEYWGQGTQVTVSS”, the “polyreactivity (PSR sort gate)” value is “high polyreactivity”.

With “QVQLVDSGGGLVQAGGSLLLSCAASGSTINHKDMGLYRQAPGKERELVAAISWSGGSTTYADSVKGRFTISRDNAKNTVYLQMNSLKPEDTAVYYCAADWYYWGFIFDYWGQGTQVTVSS”, the “polyreactivity (PSR sort gate)” value is given as “high polyreactivity”.

For the sequence “QVQLVDSGGGLVQAGGSLRISCAATGSIFGPNAMGWNRQPPGKERELVAAISRRGGTTYYADSVKGRFTISRDNSKNTFYLQMNSLKPEDTAVYYCATVLYKAYNDYGYWGQGTQVTVSS”, the “polyreactivity (PSR sort gate)” value is “high polyreactivity”.

As to “QVQLVDSGGGLVQAGGSLRLICAASGSISSYYAMVWYRQAPGKERELVAAITSGGRTYYADSVKGRFTISRDNAKNTVYLQMNSLKPEDTAVYYCNARTARNPIKGRASYYWGQGTQVTVSS”, the “polyreactivity (PSR sort gate)” value was “high polyreactivity”.

Take “QVQLVDSGGGLVQAGGSLRLRCAASGSTFGIYAMGWYRQAPGKERELVAAISWRGGRTYYADSVKGRFTITRDNAKNNVYFQMNSLKPEDTAVYYCAADYRYLWEGYDYWGQGTQVTVSS”: the “polyreactivity (PSR sort gate)” value was “low polyreactivity”.

Turning to “QVQLVDSGGGLVQAGGSLRLRCAASGSTFRRYAMGWYRQAPGKERELVAAISNRDGSTYYADSVKGRFTISRDNAKNTVYLQMNSLKADDTAVYYCNAYGYGDYSFLKYRFEYDYWGQGTQVTVSS”, the “polyreactivity (PSR sort gate)” value is reported as “low polyreactivity”.

As to “QVQLVDSGGGLVQAGGSLRLRCAASGSTYHYAMAGYRQAPGKERELVASITWRGDTTYYADSVKARFTISRDNAMNTVYFHMNSLKPEDSAVYYCAAYVRRCFAWGQGTQVTVSS”, the “polyreactivity (PSR sort gate)” value is on record as “high polyreactivity”.

On to “QVQLVDSGGGLVQAGGSLRLSCAASASTFEYYTMGWYRHAPGKERQLVASIRSSGTSTYYADCVKGRFTISRDNAKNTVYLQMNSLKPEDTAVSYWAATVLSIYVSSYGFWGQGTQVTVSS”, for which the “polyreactivity (PSR sort gate)” value is given as “high polyreactivity”.

On to “QVQLVDSGGGLVQAGGSLRLSCAASGFIFDVYAMGGYRQAPGKERQLVAAISVSSTNYADSVKGRFTISRDNAKNTVYLQMNSLKPEDTAVSYCAADTYTYFLASYLYGQYDYWGQGTQVTVSW”, for which the “polyreactivity (PSR sort gate)” value is recorded as “low polyreactivity”.

Regarding “QVQLVDSGGGLVQAGGSLRLSCAASGFIFIRNARGWYRQAPGKESQLVAAIRYRGGNTYYADSVKGRFTISRDNAKNTVYLQMNSLKPEDTAVYYCNAAGSYYTRSDSGYWGQGTQVTVSS”, the “polyreactivity (PSR sort gate)” value is recorded as “high polyreactivity”.

Consider “QVQLVDSGGGLVQAGGSLRLSCAASGFIFPVYTMGWYRQAPGKERELVAAITQIGGSTQYADSVKGRFTISRDNAKNTVYLQMNSLKPEDTAVYYCAVDYDSYWYGTYVNEYVYWGQGTQVTVSS”, for which the “polyreactivity (PSR sort gate)” value is reported as “low polyreactivity”.

Regarding “QVQLVDSGGGLVQAGGSLRLSCAASGFIFTDYAMGLYRQAPGQEREFVAAIDWSGGNTYYADSVTGRFTISRDNAKNTVYLQMNSLKPEDTAVFYCAASGSAREYVYWGQGTQVTVSS”, the “polyreactivity (PSR sort gate)” value is given as “low polyreactivity”.

In the case of “QVQLVDSGGGLVQAGGSLRLSCAASGFIFWYYAMGWYRQEPRKERELVAAITSGGNTNYADSVKGRFTISRDNAKNTVYLQMNSLKPEDTAVYYCATGRASGREHDSWGQGTQVTVSS”, the “polyreactivity (PSR sort gate)” value is recorded as “low polyreactivity”.

As for “QVQLVDSGGGLVQAGGSLRLSCAASGFIFYKYAMGWYRQATGKERELVAAISKRGGSTYYADSVKGRFTISRDNAKNTVYLQMNSLKPEYTAVYDCATDGGYSDTVRYVASDYWGQGTQVTVSS”, the “polyreactivity (PSR sort gate)” value is “high polyreactivity”.

Turning to “QVQLVDSGGGLVQAGGSLRLSCAASGFILYFNAMGWYRQAHGKERELVAAISRGDGSTYADSVKGRFTISRDNAKNTVYLQMNSLKAQDTAVYYCNAGLGVVVTHYVGYGYDSWGQGTQVTVSS”, the “polyreactivity (PSR sort gate)” value is listed as “low polyreactivity”.

“QVQLVDSGGGLVQAGGSLRLSCAASGFNFASYALGWYRPAPGKERELVAAISQSGGRTYYADSVKGRFTISRDNANNTVYLQMNSLKPEDTAVYYCAAPSYRYIYYSPGTGLGYWGQGTQVTVSS”: the “polyreactivity (PSR sort gate)” value is recorded as “high polyreactivity”.

Consider “QVQLVDSGGGLVQAGGSLRLSCAASGFTFTPNAMGWYRQAPGTERELVAAISRRGGSTYYADSVKGRFTISRDNAKNTVYLQMNSLKPEDTAVYYCAASSSGRGGYWGQGTQVTVSS”, for which the “polyreactivity (PSR sort gate)” value is “high polyreactivity”.

With “QVQLVDSGGGLVQAGGSLRLSCAASGFTIPYYAMGWYRQAPGKERELVAAISSGGRTNYADSVKGRFTISRDNAKNTVYLPMNSLKPEDTAVYYCATRSYVFAWEFYYWGQGTQVTVSS”, the “polyreactivity (PSR sort gate)” value is listed as “high polyreactivity”.

Consider “QVQLVDSGGGLVQAGGSLRLSCAASGGILKCYYMGRYRQATGKEMEFVSPITWSAGSTYYADSVKGRFTISRDNAKNTVYLQMNSLKPEDTAVHYCNVDWYPRGPHTVVFYDVSPYDYWGQGTQVTVSS”, for which the “polyreactivity (PSR sort gate)” value is “high polyreactivity”.

For the sequence “QVQLVDSGGGLVQAGGSLRLSCAASGIILYPYAMGWYRQAPGKERELVAAISWSGGSTYYADSVKGRFTISRDNAKNTVYLQMNSLKPEDTAVYYCAARPRRRYYGYDSWGQGTQVTVSS”, the “polyreactivity (PSR sort gate)” value was “high polyreactivity”.

Take “QVQLVDSGGGLVQAGGSLRLSCAASGITFNSYVMGLYRQAPGKERELVAVISRGGGITYYADSVKGRFTISRDNAKNTVYLQMNSLKPEDTAVSYCAADHTHGYVLYYNDNYWGQGTQVTVSS”: the “polyreactivity (PSR sort gate)” value is listed as “high polyreactivity”.

Regarding “QVQLVDSGGGLVQAGGSLRLSCAASGITFRTYAMGWYRQEPGKERELVAAISGSSTSTYYADSVKGRFTISRDNAKNTVYLQMNSLKPEDTAVYYCAAGYRVSVYRYYYWGQGTQVTVSS”, the “polyreactivity (PSR sort gate)” value is given as “high polyreactivity”.

“QVQLVDSGGGLVQAGGSLRLSCAASGITFYYYAMGRYIQAPGKERELVAAISWSGGSTYYADSVKGRFTISRDNAKNTVYLPMNSLIPEDTAVYYCAATPYQYHDGGYWGQGTQVTVSS”: the “polyreactivity (PSR sort gate)” value was “high polyreactivity”.

Turning to “QVQLVDSGGGLVQAGGSLRLSCAASGITFYYYAMGWYRQAAGKERELVAAISSRGGSTYYADSVKGRFTISRDNAKNTVYLQRNSLKPEDTAVYYCAALYGVSEEDDYWGQATQVTVSS”, the “polyreactivity (PSR sort gate)” value is given as “high polyreactivity”.

In the case of “QVQLVDSGGGLVQAGGSLRLSCAASGITFYYYAMGWYRQAPGKERELVAAISSRGGSTYYADSVKGRFRISRDNAKNTVYLQMNSLNPEDTAVYYCAAGRVGAWTFDYWGEGTQVTVSS”, the “polyreactivity (PSR sort gate)” value is “high polyreactivity”.

For the sequence “QVQLVDSGGGLVQAGGSLRLSCAASGITIEYNDMGWYRQAPGTERELVAAISLSSGSTYYADSVKGRFTISRDNAKNTVYLQMNSLKPEDTAVYYCNADTIIYEGGYWGQGTQVTVSS”, the “polyreactivity (PSR sort gate)” value is listed as “low polyreactivity”.

For the sequence “QVQLVDSGGGLVQAGGSLRLSCAASGITIVYYAMGWNRQAPGKERELVAAITRGANTYYADSVKGRFTISRDNAKNTVYLQMNSLKPEDTAVYYCAADGWVGAWWYVLDVRYDYWGQGTQVTVSS”, the “polyreactivity (PSR sort gate)” value is listed as “low polyreactivity”.

On to “QVQLVDSGGGLVQAGGSLRLSCAASGLIFDVYAMGWYRQAPGKERELVAVISSDGGTYYADSVKGLFTISRDNAKNTVYLQMISLKPEYTAVYYCAARRWREGARYSYWGQGTQVTVSS”, for which the “polyreactivity (PSR sort gate)” value is “high polyreactivity”.

As to “QVQLVDSGGGLVQAGGSLRLSCAASGLNFVINAMGWYRQAPGKERELDATISSGVSTNYADSVKGRFTISRDNAKNTVYLQMNSLKPEDTAVYDCNKGQTVSRGYRLYERYDYWGQGTQVTVSS”, the “polyreactivity (PSR sort gate)” value is recorded as “low polyreactivity”.

As to “QVQLVDSGGGLVQAGGSLRLSCAASGLTFTRYAMGWYRQAPGKERELVAAISKNGGSTYYADSVKGRFTISRDNAKNTVYLQMNSLKPAETAVYYCAARRYGPGRYPEDYWGQGTQVTVSS”, the “polyreactivity (PSR sort gate)” value is recorded as “high polyreactivity”.

On to “QVQLVDSGGGLVQAGGSLRLSCAASGLTIPVYTMVWYRHAPGTEREFVAAITYNGGRTYYADCVKGRFTISRDNAKNTVYLQMNSLKPEDTAVYYCAAEYGTYFVRYYAGASYRYGYWGQGTQVTVSS”, for which the “polyreactivity (PSR sort gate)” value is on record as “low polyreactivity”.

Regarding “QVQLVDSGGGLVQAGGSLRLSCAASGNTFSGNTMGWYRQAPGKERELVAAIRFTGGSTTYADSVKGRFTISRDNAKNTVYLQMNSLKPEDTAVYYCNTDWVSFRSIYHEYDYWGQGTQVTVSS”, the “polyreactivity (PSR sort gate)” value is “low polyreactivity”.
